Residue numbers refer to the chain shown, from its start.
B1: cr171 (nucleic acid)
guide: GTTTAAGAGCTAAGCTGGAAACAGCATAGCAAGTTTAAATAAGGCTAGTCCGTTATCAACCTGAGAAGGTGGCACCGAGTCGGTGCT
modifications: listed as DNA, chemistry not fully specified
B2: cr809 (nucleic acid)
guide: B1 guide with C61G, G65A, G68C, C73A, G85T
modifications: listed as DNA, chemistry not fully specified
B3: cr772 (nucleic acid)
guide: B1 guide with C61T, T62C, G65A, A67G, G68A
modifications: listed as DNA, chemistry not fully specified
B4: cr356 (nucleic acid)
guide: B1 guide with A59C, C61T, G65A, G68A, T70G, G72A, C86T
modifications: listed as DNA, chemistry not fully specified
B5: cr296 (nucleic acid)
guide: B1 guide with C61T, G65A, G68A, C73T, C76G, G77C, C81G, G82C, G85A
modifications: listed as DNA, chemistry not fully specified
B6: cr425 (nucleic acid)
guide: B1 guide with A59T, G65A, G68T, T70C
modifications: listed as DNA, chemistry not fully specified
B7: cr804 (nucleic acid)
guide: B1 guide with T34C, C61T, G65A, G68A, G72A, C86T
modifications: listed as DNA, chemistry not fully specified
B8: cr868 (nucleic acid)
guide: B1 guide with T36C, C61T, G65A, G68A
modifications: listed as DNA, chemistry not fully specified
B9: cr955 (nucleic acid)
guide: B1 guide with G48A, C61T, G65A, G68A
modifications: listed as DNA, chemistry not fully specified
B10: cr545 (nucleic acid)
guide: B1 guide with G29A, T54C, C57A, C61T, G65A, G68A
modifications: listed as DNA, chemistry not fully specified
B11: cr775 (nucleic acid)
guide: B1 guide with A31G, G33T, C61T, G65A, G68A
modifications: listed as DNA, chemistry not fully specified
B12: cr728 (nucleic acid)
guide: B1 guide with A58G, C61T, G65C, G68A
modifications: listed as DNA, chemistry not fully specified
B13: cr569 (nucleic acid)
guide: B1 guide with A28G, A47C, C57G, C61T, G65A, G68A
modifications: listed as DNA, chemistry not fully specified
B14: cr165 (nucleic acid)
guide: B1 guide with G43A, C51T, C61T, T62C, G65A, A67G, G68A, G72T, C86A
modifications: listed as DNA, chemistry not fully specified
B15: cr040 (nucleic acid)
guide: B1 guide with G1A, A6C, C61T, G65A, G68A
modifications: listed as DNA, chemistry not fully specified
B16: cr318 (nucleic acid)
guide: B1 guide with A42T, C61T, G65T, G68A
modifications: listed as DNA, chemistry not fully specified
B17: cr485 (nucleic acid)
guide: B1 guide with A47T, C61T, G65A, G68A, G71T, A78T
modifications: listed as DNA, chemistry not fully specified
B18: cr668 (nucleic acid)
guide: B1 guide with C60G, C61T, G65A, G68A
modifications: listed as DNA, chemistry not fully specified
B19: cr566 (nucleic acid)
guide: B1 guide with T34C, C61A, G65A, G68T
modifications: listed as DNA, chemistry not fully specified
B20: cr873 (nucleic acid)
guide: B1 guide with T34C, C61T, T62A, G65A, A67T, G68A
modifications: listed as DNA, chemistry not fully specified
B21: cr794 (nucleic acid)
guide: B1 guide with C61T, G65A, G68A, G72C, C76G, G82C, C86G
modifications: listed as DNA, chemistry not fully specified
B22: cr736 (nucleic acid)
guide: B1 guide with T34A, C61T, G65A, G68A, T87A
modifications: listed as DNA, chemistry not fully specified
B23: cr799 (nucleic acid)
guide: B1 guide with C51T, C61T, G65A, G68A
modifications: listed as DNA, chemistry not fully specified
B24: cr126 (nucleic acid)
guide: B1 guide with G33A, A47C, C61T, G63T, G65A, G68A
modifications: listed as DNA, chemistry not fully specified
B25: cr866 (nucleic acid)
guide: B1 guide with C61T, G65A, G68A, G72T, A74C
modifications: listed as DNA, chemistry not fully specified
B26: cr486 (nucleic acid)
guide: B1 guide with C61T, G65A, G68A, G72A, C73A, C76T, G82A, G85T, C86T
modifications: listed as DNA, chemistry not fully specified
B27: cr460 (nucleic acid)
guide: B1 guide with C45G, G48C, C61T, G65A, G68A, A74T, C76A, G82T, T84A
modifications: listed as DNA, chemistry not fully specified
B28: cr385 (nucleic acid)
guide: B1 guide with C61T, G65A, G68A, A74C, C75A, G77C, C81G, G83T, T84G
modifications: listed as DNA, chemistry not fully specified
B29: cr148 (nucleic acid)
guide: B1 guide with T34C, C61T, G65A, G68A, A74G, T84C
modifications: listed as DNA, chemistry not fully specified
B30: cr432 (nucleic acid)
guide: B1 guide with T34C, C60G, C61T, G65A, G68A, G69C
modifications: listed as DNA, chemistry not fully specified

What follows are molecules tested on K562 CRISPRi cells (assay: Constant region variant library pooled growth screen, K562). Conditions: sgRNA constant region variants; activity relative to the original, un-modified constant region cr995.
Assay type: cell-based, human
Procedure, shortened: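 Library of sgRNA constant-region variants, each paired with 36 targeting sequences (essential-gene and non-targeting), transduced in duplicate into K562 CRISPRi cells, puromycin-selected and grown 4–8 days at >2000× coverage. Activity per variant is its growth phenotype normalised to the same targeting sequence with unmodified constant region.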

Molecule | Mean relative activity
B1 | 1.044
B2 | 1.042
B3 | 1.099
B4 | 1.042

Same assay, conditions: sgRNA constant region variants; relative to the original, un-modified constant region cr995; CRISPRi

Molecule | Mean relative activity
B5 | 0.3911
B6 | 0.4409
B7 | 0.4025
B8 | 0.4517
B9 | 0.4541
B10 | 0.3936
B11 | 0.4052
B12 | 0.4155
B13 | 0.3992
B14 | 0.4224
B15 | 0.4233
B16 | 0.4269
B17 | 0.4419
B18 | 0.4445
B19 | 0.4299
B20 | 0.4546
B21 | 0.411
B22 | 0.4208
B23 | 0.4031
B24 | 0.4034
B25 | 0.4434
B26 | 0.4409
B27 | 0.4381
B28 | 0.4186
B29 | 0.4276
B30 | 0.3923

Reference: patent publication US20220259593A1, “CONTROL OF MAMMALIAN GENE DOSAGE USING CRISPR” (The Regents of the University of California, priority 2019, published 2022)
